Test results from article PMC3910272, “Assay Platform for Clinically Relevant Metallo-β-lactamases” (Journal of Medicinal Chemistry, 2013).
Marks after values point to notes of the source that are not given here. Blank lines part the entries; values can stand above or below the compound they belong to.

Legend:
[1] = test system: C[C@@H](O)[C@H]1C(=O)N2C(C(=O)O)=C(SCCN=CN)C[C@H]12; assay: purified protein, by the assay type; details: substrate hydrolysis
[2] = test system: O=C(Cc1ccccc1)N[C@@H]1C(=O)N2C(C(=O)O)=C(COc3ccc4ccc(=O)oc4c3)CS[C@H]12; assay: purified protein, by the assay type; details: other: NDM-1; substrate hydrolysis
[3] = test system: O=C(Cc1ccccc1)N[C@@H]1C(=O)N2C(C(=O)O)=C(COc3ccc4ccc(=O)oc4c3)C[S+]([O-])[C@H]12; assay: purified protein, by the assay type; details: substrate hydrolysis
[4] = test system: [H][C@@]12[C@H](NC(=O)Cc3ccccc3)C(=O)N1C(C(=O)O)=C(COc1ccc3ccc(=O)oc3c1)CS2(=O)=O; assay: purified protein, by the assay type; details: substrate hydrolysis
[5] = molecular target: T1, SPM-1 (Pseudomonas aeruginosa, UniProt Q8G9Q0); assay: SPM-1 inhibition (residual activity, IC50), FC4 as reporter substrate; type: biochemical
Description: To achieve clinical utility, MBL inhibitors may need to act on more than one MBL subfamily. This is potentially challenging because of the generally low sequence similarity between MBLs of different subfamilies (B1, B2, B3). […] This set of compounds was selected as a result of their previously reported inhibition of metal-binding oxygenases.[51] […] In contrast, the compounds derivatized with a Trp, Leu, Asp, or Glu residue inhibited SPM-1, with the tryptophan-functionalized chloroisoquinolinols (S)-7d and (R)-7d giving the most promising results (3% and 8% residual activity (RA) at 200 μM, respectively).
(§1) Taking into account the aforementioned requirements,
(§2) absorbance from Greiner Bio-One were used.
(§3) Determination of the steady state kinetic
(§4) concentration using the same software.
(§5) Additional tests verified

[6] = Autohydrolysis and storage stability of fluorogenic substrates; type: physicochemical; details: for period of use when stored as solids: solids at −20 °C; for time solutions could be used: solutions stored on ice
[7] = test system: O=C(Cc1cccs1)N[C@@H]1C(=O)N2C(C(=O)O)=C(/C=C/c3ccc([N+](=O)[O-])cc3[N+](=O)[O-])CS[C@H]12; assay: purified protein, by the assay type; details: substrate hydrolysis
[8] = test system: O=C(Cc1cccs1)N[C@@H]1C(=O)N2C(C(=O)O)=C(CSc3ccc([N+](=O)[O-])c(C(=O)O)c3)CS[C@H]12; assay: purified protein, by the assay type; details: substrate hydrolysis
[9] = molecular target: T2, Bc II (Bacillus cereus, UniProt P04190); assay: Bc II inhibition IC50, FC4 as reporter substrate; type: biochemical
T2 construct: made in house; host or cells: E. coli BL21(DE3) pLysS
Description: as §1, §2, §3, §4, §5

[10] = molecular target: IMP-1 (Serratia marcescens, UniProt P52699); assay: biochemical
[11] = molecular target: T3, NDM-1 (Klebsiella pneumoniae, UniProt C7C422); assay: biochemical
[12] = molecular target: VIM-2 (Escherichia coli, UniProt Q5U7L7); assay: biochemical
[13] = molecular target: T1, SPM-1; assay: biochemical
Description: as §1, §2, §3, §4

[14] = molecular target: T3, NDM-1; type: biochemical; design: His-tag (3C protease cleavable) (N, cleaved yes); made in house; host or cells: E. coli BL21(DE3) pLysS; details: substrate hydrolysis
Description: as §1, §2, §3, §4

T3 sequence (C7C422 29-270 limits assumed): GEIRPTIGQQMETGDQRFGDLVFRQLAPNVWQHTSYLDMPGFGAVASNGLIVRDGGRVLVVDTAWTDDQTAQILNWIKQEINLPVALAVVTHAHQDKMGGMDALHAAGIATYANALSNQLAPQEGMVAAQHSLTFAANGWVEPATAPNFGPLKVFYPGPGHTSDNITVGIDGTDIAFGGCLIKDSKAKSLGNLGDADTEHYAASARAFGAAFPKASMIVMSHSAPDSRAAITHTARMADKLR
T1 sequence (Q8G9Q0 entry or part of it): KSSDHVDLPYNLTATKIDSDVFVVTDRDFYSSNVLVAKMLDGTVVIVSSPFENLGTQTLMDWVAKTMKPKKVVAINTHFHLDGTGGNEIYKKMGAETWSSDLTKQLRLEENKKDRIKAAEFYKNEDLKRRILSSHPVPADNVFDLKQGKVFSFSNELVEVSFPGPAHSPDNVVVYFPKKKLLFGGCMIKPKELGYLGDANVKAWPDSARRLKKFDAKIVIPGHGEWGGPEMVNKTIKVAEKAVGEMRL
T2 sequence (P04190 31-257): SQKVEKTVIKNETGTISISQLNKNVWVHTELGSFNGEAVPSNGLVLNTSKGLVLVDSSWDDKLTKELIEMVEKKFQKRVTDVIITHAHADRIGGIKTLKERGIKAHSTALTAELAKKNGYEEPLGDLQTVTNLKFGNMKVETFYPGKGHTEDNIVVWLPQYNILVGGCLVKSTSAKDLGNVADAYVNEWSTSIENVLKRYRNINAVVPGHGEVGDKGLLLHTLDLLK
Sequence of IMP-1 (P52699 19-246 limits assumed): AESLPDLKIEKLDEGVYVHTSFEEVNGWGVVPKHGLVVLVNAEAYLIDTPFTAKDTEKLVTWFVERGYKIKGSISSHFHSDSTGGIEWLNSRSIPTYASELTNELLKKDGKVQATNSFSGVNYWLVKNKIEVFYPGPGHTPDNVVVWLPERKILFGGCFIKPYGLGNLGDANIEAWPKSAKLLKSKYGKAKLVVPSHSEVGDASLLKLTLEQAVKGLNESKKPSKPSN

Compound: NDM-1 (Klebsiella pneumoniae)
kcat/Km ([1]; other: NDM-1): 3.6e+06 M⁻¹ s⁻¹
kcat/Km [2]: 5.8e+06 M⁻¹ s⁻¹
Km ([3]; other: NDM-1): 4.0 ± 0.8 µM
kcat/Km ([3]; other: NDM-1): 3.2e+07 M⁻¹ s⁻¹
Km ([4]; other: NDM-1): 2.4 ± 0.2 µM
kcat/Km ([4]; other: NDM-1): 1.24e+08 M⁻¹ s⁻¹

Compound: O=C(O)c1ccc(O)cc1O [β-Resorcylic acid, reference compound]
RA 1 mM (residual activity on SPM-1) ([5]; compound at 1 mM, FC4 reporter substrate, 10 min preincubation): 76%

autohydrolysis in buffer ([6]; buffer, room temperature, after 3 h): substantial hydrolysis
Compound: O=C(Cc1ccccc1)N[C@@H]1C(=O)N2C(C(=O)O)=C(COc3ccc4ccc(=O)oc4c3)CS[C@H]12 [FC3]

Compound: SPM-1 (Pseudomonas aeruginosa)
kcat/Km ([1]; other: SPM-1): 100000 M⁻¹ s⁻¹
Km ([3]; other: SPM-1): 2.5 ± 0.2 µM
kcat ([3]; other: SPM-1): 8.7 s⁻¹
kcat/Km ([3]; other: SPM-1): 3.5e+06 M⁻¹ s⁻¹
Km ([7]; other: SPM-1): 16.0 ± 3.7 ^c μM
kcat ([7]; other: SPM-1): 0.7 s⁻¹
kcat/Km ([7]; other: SPM-1): 40000 M⁻¹ s⁻¹
kcat ([8]; other: SPM-1): 6.1 s⁻¹
kcat/Km ([8]; other: SPM-1): 200000 M⁻¹ s⁻¹
Km ([4]; other: SPM-1): 2.7 ± 0.2 µM
kcat/Km ([4]; other: SPM-1): 1.03e+07 M⁻¹ s⁻¹

Compound: O=C(N[C@@H](Cc1c[nH]c2ccccc12)C(=O)O)c1nc(Cl)c2ccccc2c1O [(S)-7d]
IC50 [5]: 23.2 ± 1.1 µM
IC50 [9]: 61.3 ± 1.3 µM
IC50 [10]: 75.6 ± 1.5 µM
IC50 [11]: 61.4 ± 1.3 µM
IC50 [12]: 54.7 ± 1.4 µM

Compound: O=C(Cc1cccs1)N[C@@H]1C(=O)N2C(C(=O)O)=C(/C=C/c3ccc([N+](=O)[O-])cc3[N+](=O)[O-])CS[C@H]12 [nitrocefin]
Ki ([13]; apparent Ki value for substrate/product inhibition, table footnote): 36.6 µM
Ki ([13]; concentration at which SPM-1 is inhibited by nitrocefin/nitrocefin-derived species, substrate or product inhibition): 36 µM
Km [14]: 8.8 ± 1.1 µM
kcat [14]: 25.3 s^–1

Compound: IMP-1 (Serratia marcescens)
kcat ([1]; other: IMP-1): 1200 s⁻¹
kcat/Km ([1]; other: IMP-1): 2.81e+07 M⁻¹ s⁻¹
kcat/Km ([3]; other: IMP-1): 8.07e+08 M⁻¹ s⁻¹
Km ([7]; other: IMP-1): 55.7 ± 4.8 µM
kcat ([7]; other: IMP-1): 2790 s⁻¹
kcat/Km ([7]; other: IMP-1): 5.02e+07 M⁻¹ s⁻¹
kcat/Km ([8]; other: IMP-1): 2.53e+07 M⁻¹ s⁻¹
kcat/Km ([4]; other: IMP-1): 5.17e+08 M⁻¹ s⁻¹

Compound: VIM-2 (Escherichia coli)
kcat/Km ([1]; other: VIM-2): 1.1e+06 M⁻¹ s⁻¹
Km ([3]; other: VIM-2): 6.3 ± 0.4 µM
kcat/Km ([3]; other: VIM-2): 2e+07 M⁻¹ s⁻¹
Km ([7]; other: VIM-2): 7.2 ± 0.6 µM
kcat ([7]; other: VIM-2): 226 s⁻¹
kcat/Km ([7]; other: VIM-2): 3.12e+07 M⁻¹ s⁻¹
kcat/Km ([8]; other: VIM-2): 1.8e+06 M⁻¹ s⁻¹
kcat/Km ([4]; other: VIM-2): 1.91e+07 M⁻¹ s⁻¹

time stable in buffer (autohydrolysis study) ([6]; buffer, room temperature): at least 8 h
period of use when stored as solids [6]: months
time solutions could be used [6]: 1 to 2 days
Compound: O=C(Cc1ccccc1)N[C@@H]1C(=O)N2C(C(=O)O)=C(COc3ccc4ccc(=O)oc4c3)CS(=O)(=O)[C@H]12 [FC5, (6R,7R)-8-Oxo-3-(((2-oxo-2H-chromen-7-yl)oxy)methyl)-7-(2-phenylacetamido)-5-thia-1-azabicyclo[4.2.0]oct-2-ene-2-carboxylic Acid 5,5-Dioxide]

time stable in buffer (autohydrolysis study) ([6]; buffer, room temperature): at least 8 h
period of use when stored as solids [6]: months
time solutions could be used [6]: 1 to 2 days
Compound: O=C(Cc1ccccc1)N[C@@H]1C(=O)N2C(C(=O)O)=C(COc3ccc4ccc(=O)oc4c3)C[S+]([O-])[C@H]12 (stereo partly drawn) [FC4, (6R,7R)-8-Oxo-3-(((2-oxo-2H-chromen-7-yl)oxy)methyl)-7-(2-phenylacetamido)-5-thia-1-azabicyclo[4.2.0]oct-2-ene-2-carboxylic Acid 5-Oxide]

Compound: BcII (Bacillus cereus)
kcat/Km ([1]; other: BcII): 400000 M⁻¹ s⁻¹
kcat/Km ([3]; other: BcII): 700000 M⁻¹ s⁻¹
Km ([7]; other: BcII): 8.1 ± 1.0 µM
kcat ([7]; other: BcII): 14.9 s⁻¹
kcat/Km ([7]; other: BcII): 1.8e+06 M⁻¹ s⁻¹
kcat ([8]; other: BcII): 8.9 s⁻¹
kcat/Km ([8]; other: BcII): 60000 M⁻¹ s⁻¹
kcat/Km ([4]; other: BcII): 3.7e+06 M⁻¹ s⁻¹

Compound: O=C(N[C@H](Cc1c[nH]c2ccccc12)C(=O)O)c1nc(Cl)c2ccccc2c1O [(R)-7d]
IC50 [5]: 46.6 ± 1.1 µM
IC50 [9]: 132.4 ± 1.3 µM
IC50 [10]: 74.1 ± 1.6 µM
IC50 [11]: 47.1 ± 1.1 µM
IC50 [12]: 55.3 ± 1.3 µM
